Reference: US20250230236A1 (SINGAPORE HEALTH SERVICES PTE, published 2025)

Target: T1, GRP78 (UniProt P11021 19-654)
T1 construct: Endogenous protein of PC-9 cells
Assay: cross-immunoprecipitation
Procedure: FIGS. 6A-6B show A) immunoprecipitation with GR 6A04. Boxed area was excised for mass spectrometry. B) Mass spectrometry analysis of excised region identified the top 5 putative antigens after removal of non-specific hits found in the same region in the Column Control lane. […] The antigen identity was then validated by a pull-down with commercial antibodies against the target, and a cross-probe of the immunoprecipitated products with GR 6A04, and vice-versa. GRP78 was tested by cross-IP and ruled out as possible antigen for GR 6A04.
Immunoprecipitation (IP) was conducted using the automated Phynexus MEA system (Phynexus Inc., USA). GR6A04 was captured onto Protein G PhyTip columns containing 5 ul of resin bed. The column was then washed with PBS to remove unbound proteins, and PC-9 membrane protein extract was introduced to bind to GR6A04 that has been captured on the column. The column was then washed with Wash Buffer II (140 mM NaCl, pH7.4) before elution at low pH with Elution Buffer (200 mM NaH2PO4/140 mM NaCl pH 2.5) and neutralized immediately with 1 M Tris-Cl pH 9.0. The IP product is then subjected to analysis by Western blot.

T1 sequence (P11021 19-654 limits assumed): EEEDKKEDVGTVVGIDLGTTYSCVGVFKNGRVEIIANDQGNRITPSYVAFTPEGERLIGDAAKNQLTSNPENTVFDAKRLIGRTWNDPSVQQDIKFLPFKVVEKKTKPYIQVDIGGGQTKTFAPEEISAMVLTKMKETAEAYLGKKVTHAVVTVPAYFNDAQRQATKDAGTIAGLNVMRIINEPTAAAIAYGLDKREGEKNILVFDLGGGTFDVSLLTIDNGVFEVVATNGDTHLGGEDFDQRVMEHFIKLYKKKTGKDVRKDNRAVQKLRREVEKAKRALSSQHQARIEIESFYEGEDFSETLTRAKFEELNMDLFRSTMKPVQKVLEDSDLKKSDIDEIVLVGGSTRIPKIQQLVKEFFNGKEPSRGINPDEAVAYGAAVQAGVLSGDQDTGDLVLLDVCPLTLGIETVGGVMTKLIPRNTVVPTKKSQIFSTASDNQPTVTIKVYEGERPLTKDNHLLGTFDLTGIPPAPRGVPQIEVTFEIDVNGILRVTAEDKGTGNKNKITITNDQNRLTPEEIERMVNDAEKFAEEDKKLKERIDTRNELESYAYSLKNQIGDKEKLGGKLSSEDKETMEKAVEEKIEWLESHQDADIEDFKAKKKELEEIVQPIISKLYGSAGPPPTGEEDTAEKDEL

B1: GR6A04 monoclonal antibody (antibody, mouse IgG1, V domains shown)
VH: SGPELVKPGASVKMSCKASGNTFTSYVMHWVKQKPGQGLEWIGYINPYNDGTKYNEKFKGKATLTSDKSSSTAYMELSSLTSEDSAVYYCARSTARATPYFYAMDYWGQGTSVTVSS
VL: DILMTQSPSSLAVTAGEKVTMRCKSSQSLLWSVNQNSYLSWYQLKQGQPPKLLLYGASIRESWVPDRFTGSGSGTDFTLTISNVHVEDLAVYYCQHNHGSFLPYTFGGGTKLEIK
notes: also called mAb GR 6A04
Does B1 bind?
Result: no binding
